{"source": "patent US8597660B2", "about": "“Therapeutic approach to neurodegenerative disorders using a TFP5-peptide” (The United States of America, as represented by the …, priority 2010, dated 2013)", "key": {"cleaved caspase-3": {"tested_on": "cleaved caspase-3", "test": "Cleaved caspase-3 Western blot in Aβ-treated cortical neurons", "format": "cell-based, rat", "settings": "Aβ 6 h; P5 infection or roscovitine", "protocol": "Western blot analysis was performed as previously described (Zheng et al., Eur J Biochem 269(18), 4427-4434, 2002). In brief, an equal amount of total protein (20 μg/lane) was resolved on a 4-20% SDS polyacrylamide gel and blotted onto a polyvinylidene difluoride membrane. This membrane was incubated in blocking buffer containing 20 mM Tris-HCl (pH 7.4), 150 mM NaCl, and 0.1% (vol/vol) Tween 20 (TTBS) plus 5% dry milk (w/v) for 1 hour at room temperature followed by incubation overnight at 4° C. in primary antibodies (see antibodies). The membranes were then washed four times in TTBS (5 minutes/each) followed by incubation in secondary antibody (goat-antimouse or goat anti-rabbit IgG (H+L)-horseradish peroxidase (HRP) conjugate at a dilution of 1:3000) for 1 hour at room temperature. Western blots were analyzed using the Amersham Enhanced Chemiluminescence (ECL) kit following the manufacturer's instructions (GE Healthcare, Piscataway, N.J.).\nTo determine whether P5 inhibited neuronal apoptosis induced by Aβ, primary cortical neurons (5 days in culture (DIC)) were transfected with P5-GFP using Lipofectamine 2000. After 24 hours, cells were exposed to Aβ for 6 hours. The neurons were fixed and subjected to TUNEL staining, while P5 was visualized by (green fluorescent protein) GFP. […] The data are quantified in FIG. 5B. […] The data are quantified in FIG. 5D."}, "Cdk5/P35": {"biological_target": "Cdk5/P35 (Homo sapiens, UniProt Q00535)", "sequence (Q00535 whole entry, species assumed)": "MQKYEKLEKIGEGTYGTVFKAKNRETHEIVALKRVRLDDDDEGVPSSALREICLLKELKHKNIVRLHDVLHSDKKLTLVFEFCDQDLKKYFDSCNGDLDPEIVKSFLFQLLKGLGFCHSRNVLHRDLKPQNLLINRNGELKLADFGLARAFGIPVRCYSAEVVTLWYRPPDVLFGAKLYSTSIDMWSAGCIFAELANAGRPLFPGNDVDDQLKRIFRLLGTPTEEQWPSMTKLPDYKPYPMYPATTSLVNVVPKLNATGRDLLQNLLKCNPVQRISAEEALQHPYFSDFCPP", "test": "Cdk5/P35 kinase assay after pre-incubation with β-tubulin", "format": "biochemical", "protocol": "Tubulin polymerization was performed as detailed in a previous report (Hou et al., J. Biol. Chem., 282(26), 18666-18670, 2007). Briefly, active kinase Cdk5/P35 (2 ng/μL) or active Cdk5/P25 (1 ng/μL) were incubated with β-tubulin (enzyme: tubulin at 1:100) in the PEM buffer (80 mM PIPES, 2 mM MgCl2, 1 mM EGTA PH 7.0) supplemented with 1 mM GTP at 35° C. for 45 minutes. Following the incubation, Cdk5 kinase assays were performed with or without the addition of 0.45 μM or 0.90 μM P5.\nTo further explore this possibility, β-tubulin (which is enriched in neurons) was used to perform a study in vitro to mimic P35 interactions in cells. Cdk5/P35 and Cdk5/P25 active kinases were pre-incubated with β-tubulin (Cdk5 kinase:tubulin=1:100) respectively at 35° C. for 45 minutes to 1 hour under conditions that would promote tubulin polymerization, followed by a Cdk5 kinase assay with/without the addition of P5. […] Cdk5/P25 activity, however, was inhibited 60% after pre-incubation at the lower P5 concentration (0.45 μM) (FIG. 9B, lane 4 compared with lane 1) (p<0.01). […] On the other hand, P25, lacking the P10 domain, fails to bind these proteins, and P5 readily binds with Cdk5 in the Cdk5/P25 complex to inhibit activity."}}, "note": "“Also recorded” adds a separate entry of the source."}
{"substance": "P5: 24 residue peptide derived from Cdk5 activator P35 (K254-A277 of SEQ ID NO: 16); Cdk5 inhibitory peptide (KEAFWDRCLSVINLMSSKMLQINA; listed as Homo sapiens)", "values": [{"measurement": "Cleaved caspase-3 expression", "setting": "cleaved caspase-3", "value": "marked reduction in cleaved caspase 3 expression; also recorded: reduced to control EV levels; also recorded: significantly rescued cortical neurons from apoptosis"}, {"measurement": "Inhibition of Cdk5/P35 activity pre-incubated with polymerized tubulin", "setting": "Cdk5/P35; 0.45 μM P5", "value": "no effect on pre-incubated Cdk5/P35 activity; also recorded: not inhibited; also recorded: had no effect on Cdk5/P35"}, {"measurement": "Inhibition of Cdk5/P35 activity with unpolymerized tubulin (no pre-incubation)", "setting": "Cdk5/P35; 0.45 μM P5", "value": "P5 inhibits both kinases equally; also recorded: inhibited both Cdk5/P35 and Cdk5/P25 activities equally; also recorded: inhibited both complexes equally"}, {"measurement": "Inhibition of Cdk5/P35 activity pre-incubated with polymerized tubulin", "setting": "Cdk5/P35; 0.9 μM P5", "value": "both kinase complexes are inhibited equally; also recorded: both Cdk5 complexes were inhibited"}]}
